# Reference: article PMC3672086, “TWEAK-Independent Fn14 Self-Association and NF-κB Activation Is Mediated by the C-Terminal Region of the Fn14 Cytoplasmic Domain” (PLoS ONE, 2013)
# B1: myc epitope-tagged Fn14 extracellular domain deletion (Fn14-ΔEC) (receptor, human, UniProt Q9NP84 28-129, looked up)
# chain: EQAPGAAAPPAPFRLLWPILGGALSLTFVLGLLSGFLVWRRCRRREKFTTPIEETGGEGCPAVALIQ
# notes: human Fn14 splice variant (exon 2 skipped), 94-aa precursor missing amino acids 33-67 of the extracellular domain; mature myc-tagged protein 77 aa; Cloned from U87-luc cell mRNA; natural splice variant mRNA, endogenous protein not detected by the authors; also called ΔEC mutant; short Fn14 isoform; source: HEK293 or HEK293/NF-κB-luc/Fn14-HA cells, transiently transfected (pcDNA6/Fn14-ΔEC), on …
# Biological target: the molecule itself
# Experiment: cross-linking; cell surface proteins of transfected HEK293/NF-κB-luc/Fn14-HA cells cross-linked with 1 mM BS3 in PBS, 20 min, room temperature; lysis in HNTG buffer, reducing SDS-PAGE, anti-myc Western blot
protein,measurement,value
B1,stoichiometry N,2
